Measurements published in patent US11065317B2, “Heat shock protein-binding peptide compositions and methods of use thereof” (Agenus Inc., priority 2018, dated 2021).

Assays:
human Hsc70 = target: T1, human Hsc70 (Homo sapiens, UniProt P11142); assay: Percent complexation of peptides with Hsc70 by size exclusion chromatography; assay type: binding; settings: 60 minutes at 30° C., SEC, 214 nm; for Percent complexation of peptides with Hsc70, 0.25:1: peptide:Hsc70 molar ratio 0.25:1; for Percent complexation of peptides with Hsc70, 0.5:1: peptide:Hsc70 molar ratio 0.5:1; for Percent complexation of peptides with Hsc70, 1:1: peptide:Hsc70 molar ratio 1:1; for Percent complexation of peptides with Hsc70, 2:1: peptide:Hsc70 molar ratio 2:1; for Percent complexation of peptides with Hsc70, 4:1: peptide:Hsc70 molar ratio 4:1
T1 construct: made in house; host or cells: E. coli
T1 sequence (P11142 whole entry): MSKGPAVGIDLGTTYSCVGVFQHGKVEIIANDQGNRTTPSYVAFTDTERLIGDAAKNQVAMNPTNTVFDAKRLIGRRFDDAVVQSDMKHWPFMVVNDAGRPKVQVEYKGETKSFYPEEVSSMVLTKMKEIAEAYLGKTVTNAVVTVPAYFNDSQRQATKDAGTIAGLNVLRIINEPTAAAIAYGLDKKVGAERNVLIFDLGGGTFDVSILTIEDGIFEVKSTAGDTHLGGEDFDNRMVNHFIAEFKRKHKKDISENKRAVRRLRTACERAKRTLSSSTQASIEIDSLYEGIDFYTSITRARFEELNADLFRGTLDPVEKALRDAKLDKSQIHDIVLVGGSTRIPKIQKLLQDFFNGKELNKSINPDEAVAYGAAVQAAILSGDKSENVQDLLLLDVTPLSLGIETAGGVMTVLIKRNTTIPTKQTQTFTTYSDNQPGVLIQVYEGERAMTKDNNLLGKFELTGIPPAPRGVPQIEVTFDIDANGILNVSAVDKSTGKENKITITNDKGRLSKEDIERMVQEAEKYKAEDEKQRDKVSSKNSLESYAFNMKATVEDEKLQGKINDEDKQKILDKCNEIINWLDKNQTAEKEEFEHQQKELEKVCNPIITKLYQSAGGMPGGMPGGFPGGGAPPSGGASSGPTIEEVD
Procedure: In a separate experiment, further variants of the peptide NLLRLTG (SEQ ID NO: 70) were generated and the ability of these peptides to form a peptide-Hsc70 complex was analyzed. Peptides were again synthesized using standard Fmoc solid-phase chemical synthesis, as described above. Individual peptides were solubilized in pH adjusted water at a concentration of 250 μM, and spiked with polysorbate 20 to a final concentration of 0.1%. To form a peptide-Hsc70 complex, Hsc70 (1 mg/ml, 0.1% polysorbate) was mixed with peptide at peptide:Hsc70 molar ratios of, 0.25:1, 0.5:1, 1:1, 2:1, and 4:1, for 60 minutes at 30° C. Following incubation, samples were cooled for 5 minutes at room temperature and transferred to HPLC vials for analysis. To evaluate the quantity of the complex in the solution, 20 μl (10 μg) of the sample was loaded on a size exclusion chromatography column TSKgel SuperSW3000 (Tosoh Bioscience) at a flow rate of 0.2 ml/min with 1×PBS as a running buffer. The data was collected by measuring the absorbance at 214 nm.
The percent of Hsc70 bound to peptide was calculated by SEC. As shown in the SEC chromatogram depicted in FIG. 1, recombinant human heat shock cognate 71 kDa protein (Hsc70) appeared as monomer (M), dimer (D), trimer (T), and higher order high molecular weight (HMW) oligomeric species when subjected to SEC chromatography. Resolution and evaluation of the extent to which peptide-Hsc70 complex was formed with a given peptide or peptide mixture was complicated by the close elution of a complex of Hsc70 monomer with peptide (Msh). The peaks corresponding to monomer and complex overlap and were not fully resolved by conventional SEC media. In order to more accurately calculate the extent of complex formation, the following data analytical method was used. […] Peak area integrations of these protein species were well resolved from the complex and monomer. Further, the extent to which complex was formed appeared to be […] to the extent to which trimer and dimer were recruited to complex formation. Because of this observation, changes in trimer and dimer reflected the extent to which monomer was recruited to the formation of complex. Thus, the progression of changes in the level of trimer and dimer was used to calculate expected changes in the peak areas of overlapping complex and monomer species, and these calculated peak areas were used to calculate net formation of complex.
Terms used for various chromatographic fractions include: High Molecular Weight (HMW), Trimer and other mid-order oligomer (T), Dimer (D), Complex (C), Monomer shoulder (Msh), and Monomer (M) (see FIG. 1). Peak areas of the various fractions were extracted from SEC data and the percentage of peptide-Hsc70 complex formation was calculated using the following set of equations: % Complex=(AREAcomplex/AREATotal)×100 AREAcomplex=AREATotal−(AreaT+D+AreaMshx+AreaMx) AREATotal=AREAT+D,C,Msh,M+(AREAHDw-x−AREAHDW-0) AREAMshx=AREAMsh0×(AREA(T+D)x)/(AREA(T+D)0) AREAMx=AREAM0×(AREA(T+D)x)/(AREA(T+D)0)
AREATotal is the sum of total integrated peak areas from trimer/oligomer region through the monomer peak and excludes the initial HMW peak area but includes the excess increase of the HMW peak area that was observed when peptide was added. The HMW peak was excluded from the complexation calculation on the basis that it was aggregated protein that was not functional for complexation. This correction took into account AreaTotal factors in the minor increase in HMW area, adding it back to base total area used to calculate area of complex.
The foregoing method was applied to the SEC chromatogram for each complexation reaction by applying vertical lines to the chromatogram to produce HMW, T, C, D, and M segments (as shown in FIG. 1), calculating the area under the curve for of each of the indicated HMW, T, C, D, and M segments, and inputting the values into the equations described above.

[1] = target: T2, Recombinant human Hsc70 (rhHsc70) (Homo sapiens, UniProt P11142); assay: Complexation of rhHsc70 with PEP006 or a PEP006-containing polypeptide, size exclusion HPLC chromatogram; assay type: binding
T2 construct: made in house; host or cells: E. coli
T2 sequence (P11142 whole entry): as above
Procedure: Briefly, PEP006 peptide was reconstituted in water for injection (WFI) to a concentration of 645 μM. Recombinant human Hsc70 (rhHsc70) was diluted at a concentration of 1.66 mg/mL. Both solutions were pre-warmed in a 37° C. incubator for 10 minutes, and were combined and incubated at 37° C. for 60 minutes. The final concentration of rhHsc70 was 1 mg/mL (about 14.1 μM), and the molar ratio of PEP006 to rhHsc70 was 0.25:1, 0.5:1, 1:1, 1.5:1, 2:1, 2.5:1, and 3:1. A negative control containing only rhHsc70 at 1 mg/mL was also prepared.
A quantity of 10 μg of each sample was injected neat in triplicate for resolution by size exclusion HPLC (Alliance HPLC, Waters Model #2695 Separations Module; Dual Wavelength UV Detector, Waters Model 2487) using a chromatography column TSKgel SuperSW3000 (Tosoh Bioscience, Catalog #18675). […] UV absorbance of PEP006 peptide and rhHsc70 protein was measured at the wavelengths of 214 nm and 280 nm. The absorbance data was processed by Waters Empower (V2) software. […]
FIG. 3B is a graph showing percent complexation of a polypeptide comprising PEP006 with HSC70 over a range of polypeptide:Hsc70 molar ratios from 0.125:1 to 4:1, as calculated from size exclusion chromatography traces similar to those in FIG. 3A, using the methods described Example 6.1.1. […]

| Sequence | Percent complexation of peptides with Hsc70, 0.25:1 (human Hsc70) | Percent complexation of peptides with Hsc70, 0.5:1 (human Hsc70) | Percent complexation of peptides with Hsc70, 1:1 (human Hsc70) | Percent complexation of peptides with Hsc70, 2:1 (human Hsc70) | Percent complexation of peptides with Hsc70, 4:1 (human Hsc70) | column retention time of complexation products when rhHsc70 bound ([1]; PEP006:rhHsc70 molar ratios 0.25:1 to 3:1, 37° C. 60 minutes, FIG. 2) | column retention time of complexation products when rhHsc70 bound ([1]; polypeptide:Hsc70 molar ratios 0.125:1 to 4:1, FIG. 3A) |
| --- | --- | --- | --- | --- | --- | --- | --- |
| FFRKFWLRLTW [PEP008] | 24.4% | 38.3% | 61.8% | 79.1% | 81.6% |  |  |
| FFRKNFLRLTF [PEP027] | 19.1% | 49.0% | 77.0% | 85.6% | 90.0% |  |  |
| FFRKNLLRLTG [PEP001, reference compound] | 23.4% | 44.7% | 68.1% | 82.5% | 90.1% |  |  |
| FFRKNLLRLTW [PEP155] | 22.5% | 48.1% | 75.6% | 82.9% | 86.6% |  |  |
| FFRKNLLRWTG [PEP004] | 15.4% | 29.0% | 46.8% | 62.5% | 75.3% |  |  |
| FFRKNRLLLTG [PEP002] | 19.2% | 32.0% | 48.7% | 64.8% | 78.8% |  |  |
| FFRKNRLWLTG [PEP005] | 16.0% | 32.7% | 54.8% | 67.6% | 77.6% |  |  |
| FFRKNWIRITW [PEP013] | 25.6% | 48.3% | 69.6% | 81.9% | 87.7% |  |  |
| FFRKNWLKLKW [PEP055] | 24.1% | 52.2% | 75.9% | 83.7% | 86.3% |  |  |
| FFRKNWLKLRW [PEP057] | 24.9% | 50.0% | 72.2% | 82.8% | 88.3% |  |  |
| FFRKNWLKLTW [PEP012] | 29.9% | 58.2% | 79.2% | 86.2% | 89.5% |  |  |
| FFRKNWLKLWK [PEP058] | 22.7% | 43.5% | 66.5% | 78.8% | 83.9% |  |  |
| FFRKNWLLLTW [PEP003] | 26.8% | 45.6% | 67.2% | 81.3% | 87.6% |  |  |
| FFRKNWLRLFW [PEP010] | 19.1% | 42.2% | 64.9% | 79.3% | 86.5% |  |  |
| FFRKNWLRLKW [PEP011] | 31.2% | 58.2% | 81.6% | 87.8% | 90.4% |  |  |
| FFRKNWLRLLW [PEP009] | 32.8% | 63.5% | 81.0% | 85.3% | 89.0% |  |  |
| FFRKNWLRLTW [PEP006] | 25.4% | 53.4% | 81.5% | 88.3% | 91.8% | column retention time became shorter |  |
| FFRKQWLRLTW [PEP014] | 29.3% | 54.4% | 80.9% | 88.1% | 90.3% |  |  |
| FRNWLRLTW [PEP028] | 24.0% | 46.4% | 75.6% | 84.1% | 87.5% |  |  |
| LGVVRPRALHRELDLVDDSPTPGSPGSFFRKNWLRLTW [polypeptide comprising PEP006] |  |  |  |  |  |  | column retention time became shorter |
